According to the supplement of paper PMC10567573:

B1: ESRRG (parent)
chain: YSCPATNECEITKRRRKSCQACRF
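Also: lentivirally expressed fusions sorted by FACS into six bins by GFP to DsRed ratio, PSI derived from sequencing read proportions per bin multiplied by bin number.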

Variants of: B1
Test: protein stability index of a GFP-peptide fusion (GPS, HEK-293T) (PSI 1-6); higher = more stable
Conditions: c terminus: a fixed tail appended
In the case of YSCPATNECEQTKRRRKSCQACRF [I11Q], the protein stability index is reported as 3.51.
With YSCPATNECEFTKRRRKSCQACRF [I11F] the protein stability index was 3.26.
In the case of YSCPATNECEWTKRRRKSCQACRF [I11W], the protein stability index is reported as 3.44.
Work on YSCPATNECENTKRRRKSCQACRF [I11N] yielded a protein stability index of 3.55.
Variant YSCPATNECESTKRRRKSCQACRF [I11S] has a protein stability index of 3.63.
Variant YSCPATNECEIGKRRRKSCQACRF [T12G] has a protein stability index of 3.41.
YSCPATNECEIPKRRRKSCQACRF [T12P] showed a protein stability index of 3.86.
Work on YSCPATNECEILKRRRKSCQACRF [T12L] yielded a protein stability index of 2.71.
With YSCPATNECEIRKRRRKSCQACRF [T12R] the protein stability index was 3.56.
YSCPATNECEIFKRRRKSCQACRF [T12F] showed a protein stability index of 2.19.
In the case of YSCPATNECEINKRRRKSCQACRF [T12N], the protein stability index is reported as 3.59.
Work on YSCPATNECEIMKRRRKSCQACRF [T12M] yielded a protein stability index of 2.97.
With YSCPATNECEIKKRRRKSCQACRF [T12K] the protein stability index was 3.27.
YMCPATNECEITKRRRKSCQACRF [S2M] showed a protein stability index of 3.27.
Work on YHCPATNECEITKRRRKSCQACRF [S2H] yielded a protein stability index of 2.47.
YTCPATNECEITKRRRKSCQACRF [S2T] showed a protein stability index of 2.85.
For YICPATNECEITKRRRKSCQACRF [S2I], the protein stability index was 1.92.
With YYCPATNECEITKRRRKSCQACRF [S2Y] the protein stability index was 2.89.
For YQCPATNECEITKRRRKSCQACRF [S2Q], the protein stability index was 2.55.
YWCPATNECEITKRRRKSCQACRF [S2W] gave a protein stability index of 2.33.
SSCPATNECEITKRRRKSCQACRF [Y1S] showed a protein stability index of 4.28.
Variant HSCPATNECEITKRRRKSCQACRF [Y1H] has a protein stability index of 3.8.
For NSCPATNECEITKRRRKSCQACRF [Y1N], the protein stability index was 4.29.
In the case of LSCPATNECEITKRRRKSCQACRF [Y1L], the protein stability index is reported as 4.09.
Work on RSCPATNECEITKRRRKSCQACRF [Y1R] yielded a protein stability index of 4.21.
In the case of ESCPATNECEITKRRRKSCQACRF [Y1E], the protein stability index is reported as 4.13.
Variant ASCPATNECEITKRRRKSCQACRF [Y1A] has a protein stability index of 4.13.
Variant YSCPATNECEITKRRRKSCQACGF [R23G] has a protein stability index of 3.79.
In the case of YSCPATNECEITKRRRKSCQACKF [R23K], the protein stability index is reported as 3.33.
Variant YSCPATNECEITKRRRKSCQACSF [R23S] has a protein stability index of 3.22.
YSCPATNECEITKRRRKSCQACIF [R23I] showed a protein stability index of 2.59.
Work on YSCPATNECEITKRRRKSCQACMF [R23M] yielded a protein stability index of 3.04.
YSCPATNECEITKRRRKSCQACLF [R23L] gave a protein stability index of 2.73.
Work on YSCPATNECEITKRRRKSCQACTF [R23T] yielded a protein stability index of 3.01.
In the case of YSCPATNECEITKRRRKSCQACAF [R23A], the protein stability index is reported as 3.1.
In the case of YSCPATNECEITKRRRKSCQACEF [R23E], the protein stability index is reported as 4.02.
YSCPATNECEITKRRRKSCQACCF [R23C] showed a protein stability index of 3.71.
For YSCPATNECEITSRRRKSCQACRF [K13S], the protein stability index was 3.5.
YSCPATNECEITFRRRKSCQACRF [K13F] gave a protein stability index of 2.67.
YSCPATNECEITARRRKSCQACRF [K13A] showed a protein stability index of 3.28.
YSCPATNECEITMRRRKSCQACRF [K13M] gave a protein stability index of 3.15.
In the case of YSCPATNECEITGRRRKSCQACRF [K13G], the protein stability index is reported as 3.16.
Work on YSCPATNECEITNRRRKSCQACRF [K13N] yielded a protein stability index of 3.43.
YSCPATNECEITLRRRKSCQACRF [K13L] showed a protein stability index of 3.15.
Variant YSCPATNECEITIRRRKSCQACRF [K13I] has a protein stability index of 3.15.
Work on YSCPATNECEITCRRRKSCQACRF [K13C] yielded a protein stability index of 3.56.
In the case of YSCPATNECEITKRRRKSCQADRF [C22D], the protein stability index is reported as 4.07.
For YSCPATNECEITKRRRKSCQAMRF [C22M], the protein stability index was 2.9.
With YSCPATNECEITKRRRKSCQAGRF [C22G] the protein stability index was 3.38.
For YSCPATNECEITKRRRKSCQAYRF [C22Y], the protein stability index was 3.01.
With YSCPATNECEITKRRRKSCQARRF [C22R] the protein stability index was 3.87.
Work on YSCPATNECEITKRRRKSCQAFRF [C22F] yielded a protein stability index of 2.81.
YSCPATNECEITKRRRKSCQANRF [C22N] showed a protein stability index of 4.09.
With YSCPATNECEITKRRRKSCQAERF [C22E] the protein stability index was 3.49.
Variant YSCPATNECEITKHRRKSCQACRF [R14H] has a protein stability index of 4.23.
Work on YSCPATNECEITKDRRKSCQACRF [R14D] yielded a protein stability index of 3.76.
YSCPATNECEITKERRKSCQACRF [R14E] gave a protein stability index of 3.62.
Variant YSCPATNECEITKPRRKSCQACRF [R14P] has a protein stability index of 3.13.
YSCPATNECEITKQRRKSCQACRF [R14Q] showed a protein stability index of 3.48.
In the case of YSCPATNECEITKKRRKSCQACRF [R14K], the protein stability index is reported as 3.52.
With YSCPATNECEITKYRRKSCQACRF [R14Y] the protein stability index was 3.17.
For YSCPATNECEITKSRRKSCQACRF [R14S], the protein stability index was 3.6.
For YSCPATNECEITKGRRKSCQACRF [R14G], the protein stability index was 3.7.
In the case of YSCPATNECEITKIRRKSCQACRF [R14I], the protein stability index is reported as 3.03.
For YSCPATNECEITKCRRKSCQACRF [R14C], the protein stability index was 4.61.
Variant YSCPATNECEITKWRRKSCQACRF [R14W] has a protein stability index of 3.11.
With YSRPATNECEITKRRRKSCQACRF [C3R] the protein stability index was 3.05.
Variant YSPPATNECEITKRRRKSCQACRF [C3P] has a protein stability index of 3.58.
With YSAPATNECEITKRRRKSCQACRF [C3A] the protein stability index was 4.23.
With YSCPATNECEITKRRRKSCQWCRF [A21W] the protein stability index was 2.55.
For YSCPATNECEITKRRRKSCQLCRF [A21L], the protein stability index was 2.31.
With YSCPATNECEITKRRRKSCQRCRF [A21R] the protein stability index was 3.49.
With YSCPATNECEITKRRRKSCQKCRF [A21K] the protein stability index was 3.63.
With YSCPATNECEITKRRRKSCQECRF [A21E] the protein stability index was 3.43.
With YSCPATNECEITKRRRKSCQFCRF [A21F] the protein stability index was 2.94.
In the case of YSCPATNECEITKRRRKSCQSCRF [A21S], the protein stability index is reported as 3.23.
With YSCKATNECEITKRRRKSCQACRF [P4K] the protein stability index was 3.18.
YSCAATNECEITKRRRKSCQACRF [P4A] gave a protein stability index of 3.03.
Work on YSCYATNECEITKRRRKSCQACRF [P4Y] yielded a protein stability index of 2.59.
YSCVATNECEITKRRRKSCQACRF [P4V] gave a protein stability index of 3.09.
YSCTATNECEITKRRRKSCQACRF [P4T] gave a protein stability index of 3.21.
YSCSATNECEITKRRRKSCQACRF [P4S] showed a protein stability index of 3.11.
In the case of YSCWATNECEITKRRRKSCQACRF [P4W], the protein stability index is reported as 1.47.
YSCHATNECEITKRRRKSCQACRF [P4H] showed a protein stability index of 2.91.
YSCEATNECEITKRRRKSCQACRF [P4E] showed a protein stability index of 3.2.
YSCFATNECEITKRRRKSCQACRF [P4F] gave a protein stability index of 2.39.
YSCRATNECEITKRRRKSCQACRF [P4R] gave a protein stability index of 3.09.
For YSCPATNECEITKRRSKSCQACRF [R16S], the protein stability index was 3.8.
Work on YSCPATNECEITKRRNKSCQACRF [R16N] yielded a protein stability index of 3.69.
For YSCPATNECEITKRRAKSCQACRF [R16A], the protein stability index was 3.48.
YSCPATNECEITKRRCKSCQACRF [R16C] showed a protein stability index of 3.72.
In the case of YSCPATNECEITKRRVKSCQACRF [R16V], the protein stability index is reported as 3.32.
Work on YSCPATNECEITKRRKKSCQACRF [R16K] yielded a protein stability index of 3.62.
For YSCPATNECEITKRRGKSCQACRF [R16G], the protein stability index was 3.66.
